Consider one substance from PMC9167920.

The assay addresses CTSL-treated SARS-CoV-2 S protein ectodomain SR (cleaved at CS-1, T259/A260, and CS-2, Y636/S637) (SARS-CoV-2) (UniProt P0DTC2). Kind of assay: cryo-EM structure.

“CTSL-treated SARS-CoV-2 S protein ectodomain SR (cleaved at CS-1, T259/A260, and CS-2, Y636/S637) (from UniProt P0DTC2) (domain or fragment)” showed a stoichiometry N of 3.

By stoichiometry N is commonly meant a count of units in the complex or per binding partner.
